Results from patent US20240390531A1 (IMAGINAB, published 2024).
Positions count from the first letter of the chain named.

B1: IAB16C2-25 (other)
chain: EVQLLESGGGLVQPGGSLRLSCAASGFTFSSHAMSWVRQAPGKGLEWVSAIWASGEQYYADSVKGRFTISRDNSKNTLYLQMNSLRAEDTAVYYCAKGWLGNFDYWGQGTLVTVSSSGGGGEIVLTQSPGTLSLSPGERATLSCRASQSVSRSYLAWYQQKPGQAPRLLIIGASTRATGIPDRFSGSGSGTDFTLTISRLEPEDFAVYYCQQGQVIPPTFGQGTKVEIKGGCPPCPPC
B2: IAB16C2-16 (other)
chain: QVQLVQSGAEVKKPGASVKVSCKTSRYTFTEYTIHWVRQAPGQRLEWIGGINPNNGIPNYNQKFKGRVTITVDTSASTAYMELSSLRSEDTAVYYCARRRIAYGYDEGHAMDYWGQGTLVTVSSSGGGGDIVMTQSPDSLAVSLGERATINCKSSQSLLYSRNQKNYLAWYQQKPGQPPKLLIFWASTRESGVPDRFSGSGFGTDFTLTISSLQAEDVAVYYCQQYFSYPLTFGQGTKVEIKGGCPPCPPC
B3: IAB16C4-19 (other)
chain: EVQLLESGGGLVQPGGSLRLSCAASGFTFSSYAMSWVRQAPGKGLEWVSAIIGSGASTYYADSVKGRFTISRDNSKNTLYLQMNSLRAEDTAVYYCAKGWFGGFNYWGQGTLVTVSSGGGSGGGGEIVLTQSPGTLSLSPGERATLSCRASQSVTSSYLAWYQQKPGQAPRLLINVGSRRATGIPDRFSGSGSGTDFTLTISRLEPEDFAVYYCQQGIMLPPTFGQGTKVEIKGGCPPCPPC
notes: also called IAB164-19
B4: IAB16C2-18 (other)
chain: EVQLLESGGGLVQPGGSLRLSCAASGFTFSSYAMSWVRQAPGKGLEWVSAIIGSGASTYYADSVKGRFTISRDNSKNTLYLQMNSLRAEDTAVYYCAKGWFGGFNYWGQGTLVTVSSSGGGGEIVLTQSPGTLSLSPGERATLSCRASQSVTSSYLAWYQQKPGQAPRLLINVGSRRATGIPDRFSGSGSGTDFTLTISRLEPEDFAVYYCQQGIMLPPTFGQGTKVEIKGGCPPCPPC
B5: IAB16C4-17 (other)
chain: QVQLVQSGAEVKKPGASVKVSCKTSRYTFTEYTIHWVRQAPGQRLEWIGGINPNNGIPNYNQKFKGRVTITVDTSASTAYMELSSLRSEDTAVYYCARRRIAYGYDEGHAMDYWGQGTLVTVSSGGGSGGGGDIVMTQSPDSLAVSLGERATINCKSSQSLLYSRNQKNYLAWYQQKPGQPPKLLIFWASTRESGVPDRFSGSGFGTDFTLTISSLQAEDVAVYYCQQYFSYPLTFGQGTKVEIKGGCPPCPPC
B6: IAB16C4-27 (other)
chain: EVQLLESGGGLVQPGGSLRLSCAASGFTFSSHAMSWVRQAPGKGLEWVSAIWASGEQYYADSVKGRFTISRDNSKNTLYLQMNSLRAEDTAVYYCAKGWLGNFDYWGQGTLVTVSSGGGSGGGGEIVLTQSPGTLSLSPGERATLSCRASQSVSRSYLAWYQQKPGQAPRLLIIGASTRATGIPDRFSGSGSGTDFTLTISRLEPEDFAVYYCQQGQVIPPTFGQGTKVEIKGGCPPCPPC
B7: IAB16C1-24 (other)
chain: EIVLTQSPGTLSLSPGERATLSCRASQSVSRSYLAWYQQKPGQAPRLLIIGASTRATGIPDRFSGSGSGTDFTLTISRLEPEDFAVYYCQQGQVIPPTFGQGTKVEIKSGGGGEVQLLESGGGLVQPGGSLRLSCAASGFTFSSHAMSWVRQAPGKGLEWVSAIWASGEQYYADSVKGRFTISRDNSKNTLYLQMNSLRAEDTAVYYCAKGWLGNFDYWGQGTLVTVSSGGCPPCPPC
B8: IAB16M2-13 (other)
chain: QVQLVQSGAEVKKPGASVKVSCKTSRYTFTEYTIHWVRQAPGQRLEWIGGINPNNGIPNYNQKFKGRVTITVDTSASTAYMELSSLRSEDTAVYYCARRRIAYGYDEGHAMDYWGQGTLVTVSSGSTSGGGSGGGSGGGGSSDIVMTQSPDSLAVSLGERATINCKSSQSLLYSRNQKNYLAWYQQKPGQPPKLLIFWASTRESGVPDRFSGSGFGTDFTLTISSLQAEDVAVYYCQQYFSYPLTFGQGTKVEIKEPKSSDKTHTCPPCPPCGGGSSGGGSGGQPREPQVYTLPPSREEMTKNQVSLTCLVKGFYPSDIAVEWESNGQPENNYKTTPPVLDSDGSFFLYSKLTVDKSRWQQGNVFSCSVMHEALHNHYTQKSLSLSPG
notes: also called Sibrotuzumab minibody
B9: IAB16M1-8 (other)
chain: EIVLTQSPGTLSLSPGERATLSCRASQSVTSSYLAWYQQKPGQAPRLLINVGSRRATGIPDRFSGSGSGTDFTLTISRLEPEDFAVYYCQQGIMLPPTFGQGTKVEIKGSTSGGGSGGGSGGGGSSEVQLLESGGGLVQPGGSLRLSCAASGFTFSSYAMSWVRQAPGKGLEWVSAIIGSGASTYYADSVKGRFTISRDNSKNTLYLQMNSLRAEDTAVYYCAKGWFGGFNYWGQGTLVTVSSEPKSSDKTHTCPPCPPCGGGSSGGGSGGQPREPQVYTLPPSREEMTKNQVSLTCLVKGFYPSDIAVEWESNGQPENNYKTTPPVLDSDGSFFLYSKLTVDKSRWQQGNVFSCSVMHEALHNHYTQKSLSLSPG
B10: IAB16M1-10 (other)
chain: EIVLTQSPGTLSLSPGERATLSCRASQSVSRSYLAWYQQKPGQAPRLLIIGASTRATGIPDRFSGSGSGTDFTLTISRLEPEDFAVYYCQQGQVIPPTFGQGTKVEIKGSTSGGGSGGGSGGGGSSEVQLLESGGGLVQPGGSLRLSCAASGFTFSSHAMSWVRQAPGKGLEWVSAIWASGEQYYADSVKGRFTISRDNSKNTLYLQMNSLRAEDTAVYYCAKGWLGNFDYWGQGTLVTVSSEPKSSDKTHTCPPCPPCGGGSSGGGSGGQPREPQVYTLPPSREEMTKNQVSLTCLVKGFYPSDIAVEWESNGQPENNYKTTPPVLDSDGSFFLYSKLTVDKSRWQQGNVFSCSVMHEALHNHYTQKSLSLSPG
B11: IAB16M2-33 (other)
chain: B8 chain with S225R, Q227E, A228P, V231F
B12: IAB16M2-31 (other)
chain: B8 chain with T24A, R26G, F215S, V231F, F240Y
B13: IAB16M1-30 (other)
chain: DIVMTQSPDSLAVSLGERATINCKSSQSLLYSRNQKNYLAWYQQKPGQPPKLLIFWASTRESGVPDRFSGSGSGTDFTLTISSLQAEDFAVYYCQQYYSYPLTFGQGTKVEIKGSTSGGGSGGGSGGGGSSQVQLVQSGAEVKKPGASVKVSCKASGYTFTEYTIHWVRQAPGQRLEWIGGINPNNGIPNYNQKFKGRVTITVDTSASTAYMELSSLRSEDTAVYYCARRRIAYGYDEGHAMDYWGQGTLVTVSSEPKSSDKTHTCPPCPPCGGGSSGGGSGGQPREPQVYTLPPSREEMTKNQVSLTCLVKGFYPSDIAVEWESNGQPENNYKTTPPVLDSDGSFFLYSKLTVDKSRWQQGNVFSCSVMHEALHNHYTQKSLSLSPG
B14: IAB16M1-32 (other)
chain: B13 chain with S73F, S83R, Q85E, A86P, Y98F, A155T, G157R
B15: IAB16M1-36 (other)
chain: B13 chain with S83R, Q85E, A86P

Molecular target: T1, purified human FAP antigen (human, UniProt Q12884 26-760, limits assumed)
Test: ELISA, plate coated with purified human FAP antigen (FIG. 56F-56G)
Procedure: (§1) Binding kinetics of the novel antigen binding constructs to a purified human FAP antigen was assessed using ELISA. For this assay, a 96 well ELISA plate was coated with the human-FAP antigen diluted to a concentration of 2 mg/mL in coating buffer (0.05M sodium carbonate-bicarbonate buffer, pH 9.6). 100 μl of this coating solution was added to each well in the plate and incubate at 4° C. overnight. The plate was washed 3 times with 300 μl per well of washing buffer (PBS with 0.05% Tween-20). After the last wash, the plate was blocked by adding to each well 200 μl of blocking buffer (PBS with 1% BSA) warmed to room temperature. The plate was then incubated at room temperature for 1 hour under gentle agitation. After blocking, the plate was washed 3 times with 300 μl per well of washing buffer. Dilution samples for each minibody were created by making 2.5× dilutions from a starting sample at 100 ng/mL, or 250 ng/mL, or 1000 ng/mL or 3000 ng/mL in 100 μL sample buffer (PBS with 1% BSA). The dilution samples were transferred to the assay plate and incubated at room temperature for 1 hour under gentle agitation. The plate was then washed 3 times with 300 μl per well of washing buffer.
(§2) Detection was performed by adding 100 μl of HRP labeled detection secondary antibody at an appropriate dilution and incubating the plate at room temperature for 1 hour under gentle agitation. The plate was then washed 3 times with 300 μl per well of washing buffer. For color development, 100 μl of TMB substrate regent, pre-warmed to room temperature, was added to the plate and incubated in the dark at room temperature for 15 min. The reaction was then stopped by adding 100 μl of 650 nm stop solution to the plate and mixed for 1 min at room temperature under gentle agitation. The plate is recorded by reading OD at 650 nm in a plate reader within 20 min after terminating the reaction.

| Binder | Kd |
| --- | --- |
| B1 | ~1 nM |
| B2 | ~1 nM |
| B3 | ~1 nM |
| B4 | ~1 nM |
| B5 | ~1 nM |
| B6 | ~1 nM |
| B7 | ~1 nM |

Molecular target: T2, human FAP on cells (human, UniProt Q12884 1-760)
T2 construct: whole, on cells; The cell line is named under assay; also called HT1080 human FAP cells; HT1080-hFAP cells
Test: flow cytometry on U87-MG glioblastoma cells (FIG. 58B)
Procedure: As disclosed herein, the binding of constructs to cellular targets was assessed using flow cytometry. Stock of 2.5× serial dilution of minibodies were created starting from a concentration of 100 nM in […] FACS buffer (PBS 2% FBS). Cells were added to a Corning V-bottom polypropylene cell culture plate at 200,000 cells/well. The cells were centrifuged at 100 rpm for 3 minutes and the supernatant discarded. The minibody dilution series were transferred to the plate containing cell pellets and incubated for 1 hr at 4° C. The plate was then washed 3 times with FACS buffer at 200 µl/well, discarding supernatant after each wash by centrifugation at 1000 rpm. 50 µl/well of detection antibody R&D AlexaFluor-647 Goat anti Human (H+L) was added at a 1:100 dilution in FACS buffer and incubated at 4° C. 1 hr. The plate was washed 3 times with FACS buffer at 200 µl/well, discarding supernatant after each wash by centrifuging at 1000 rpm. Cells were then fixed by adding 100 µl of 1% paraformaldehyde in PBS and incubating at room temperature for 15 minutes. 100 µl of PBS were added to each well and the plate was analyzed by flow cytometry using the allophycocyanin fluorescence setting.

| Binder | Kd |
| --- | --- |
| B8 | ~0.1 nM |
| B9 | ~0.1 nM |
| B10 | ~0.1 nM |

Molecular target: T1, purified human FAP antigen
Test: ELISA, plate coated with purified human FAP antigen (FIG. 56A-56C)
Procedure: as §1, §2

| Binder | Kd |
| --- | --- |
| B8 | ~0.1 nM |
| B11 | ~0.1 nM |
| B12 | ~0.1 nM |
| B13 | ~0.1 nM |
| B14 | ~0.1 nM |
| B15 | ~0.1 nM |
| B9 | ~0.1 nM |
| B10 | ~0.1 nM |
